# According to PMC6312923 (Life Science Alliance, 2018):
# B1: Cdt2^PIP-3A: Cdt2 with I709, Y712, and F713 all mutated to alanine (protein, UniProt Q9NZJ0 1-730, looked up, variant I709A Y712A F713A)
# Denticleless protein homolog: MLFNSVLRQPQLGVLRNGWSSQYPLQSLLTGYQCSGNDEHTSYGETGVPVPPFGCTFSSAPNMEHVLAVANEEGFVRLYNTESQSFRKKCFKEWMAHWNAVFDLAWVPGELKLVTAAGDQTAKFWDVKAGELIGTCKGHQCSLKSVAFSKFEKAVFCTGGRDGNIMVWDTRCNKKDGFYRQVNQISGAHNTSDKQTPSKPKKKQNSKGLAPSVDFQQSVTVVLFQDENTLVSAGAVDGIIKVWDLRKNYTAYRQEPIASKSFLYPGSSTRKLGYSSLILDSTGSTLFANCTDDNIYMFNMTGLKTSPVAIFNGHQNSTFYVKSSLSPDDQFLVSGSSDEAAYIWKVSTPWQPPTVLLGHSQEVTSVCWCPSDFTKIATCSDDNTLKIWRLNRGLEEKPGGDKLSTVGWASQKKKESRPGLVTVTSSQSTPAKAPRAKCNPSNSSPSSAACAPSCAGDLPLPSNTPTFSIKTSPAKARSPINRRGSVSSVSPKPPSSFKMSIRNWVTRTPSSSPPITPPASETKIMSPRKALIPVSQKSSQAEACSESRNRVKRRLDSSCLESVKQKCVKSCNCVTELDGQVENLHLDLCCLAGNQEDLSKDSLGPTKSSKIEGAGTSISEPPSPISPYASESCGTLPLPLRPCGEGSEMVGKENSSPENKNWLLAMAAKRKAENPSPRSPSSQTPNSRRQSGKKLPSPVTITPSSMRKACTAAHRKSQEDFCGPEHSTEL
# modifications: FLAG tag
# notes: Cdt2 with I709, Y712, and F713 all mutated to alanine
# Experiments:
# Format in all cases: cell-based, human
# PCNA = experiment: Co-immunoprecipitation of PCNA with FLAG-tagged Cdt2 constructs; conditions: for interaction with PCNA (reverse IP, anti-Myc): Myc-PCNA co-transfected, HEK293; for interaction with PCNA (anti-FLAG IP): cross-linked cells, 3FLAG fusions, no UV
# Source text: Before cell lysate preparation, cells were cross-linked.
# Figure 3. […] HEK293 cells were transfected with plasmids expressing the indicated Cdt2 fused to a C-terminal FLAG tag, cross-linked, and precipitated with anti-FLAG antibodies (arrows). […] The bands in the blank lanes for Cul4A blotting correspond to the cross-reacting bands to pre-stained marker. […] HEK293 cells were transfected with the indicated plasmids and treated as in A. * indicates nonspecific bands derived from IgGs. (C) A schematic drawing of the Cdt2 domain structure highlighting the C-terminal PIP box and a sequence alignment of PIP boxes in various organisms. The alanine-changed PIP box mutant of Cdt2 was shown (PIP-3A) together with Cdt1 PIP box. (D) HEK293 cells were transfected with Cdt2^WT or PIP box mutant (Cdt2^PIP-3A) C-terminally fused to a FLAG tag, treated as in B, and Cdt2 was precipitated with anti-FLAG resin.
# Control or Cdt2-FLAG expressing 293 cells that were UV irradiated (50 J/m^2), or not UV irradiated, or in the middle S phase (5 h after release from aphidicolon arrest) were fixed with 0.02% formaldehyde for 10 min, lysed using 0.1% Triton X-100-containing modified cytoskeleton (mCSK) buffer (10 mM Pipes, pH 7.9, 100 mM NaCl, 300 mM sucrose, 0.1% [vol/vol] Triton X-100, 1 mM phenylmethylsulfonyl fluoride, 10 mM β-glycerophosphate, 1 mMNa3VO4, 10 mM NaF), and then sonicated. After centrifugation (120,000g, Beckman Type 45Ti rotor, for 20 min at 4°C), the supernatants were mixed with anti-FLAG antibody-conjugated magnetic beads (M8823; Sigma-Aldrich) for 1 h at 4°C to obtain immunoprecipitates. The precipitate was washed with ice-cold 0.1% Triton X-100 containing mCSK buffer and subsequently suspended in SDS sample buffer.
# Cdt1 poly-ubiquitination = experiment: Poly-ubiquitination of Cdt1 in HEK293 cells; conditions: for poly-ubiquitinated Cdt1 level: HEK293, MG132 3 h, asynchronous; for poly-ubiquitination of Cdt1 after UV: HEK293, endogenous Cdt2 depleted (siCdt2), MG132 25 μM, UV 20 J/m^2
# Description: Figure 6. The Cdt2 PIP box is important for its recruitment to DNA damage sites and replication foci and for poly-ubiquitination activity. (A) HEK293 and stable Cdt2^WT or Cdt2^PIP-3A cells were locally UV irradiated, and stained for XPA and FLAG (Cdt2). XPA-positive spots were examined for FLAG signal, and its frequency was counted (%). More than 50 spots were examined. bar:10 μm. […] Bar: 10 μm. […] (D) Whole-cell extracts were prepared from HEK293 and stably transfected cells of Cdt2^WT or Cdt2^PIP-3A cells, separated into soluble (Sup) and chromatin-containing insoluble (Ppt) fractions, and were examined for indicated proteins. The asterisk indicates nonspecific bands. (E) HEK293 and stably transfected cells of Cdt2^WT or Cdt2^PIP-3A were treated with MG132 for 3 h. Whole-cell extracts (WCE) were prepared, separated into soluble (Sup) and insoluble (Ppt) fractions, and blotted with the indicated antibodies.
# Figure S6. Cdt2 PIP box is important for its recruiting to DNA replication sites and its poly-ubiquitination activity in HEK293 cells. […] (B) Poly-ubiquitination after UV irradiation. HEK293 and its stables expressing Cdt2^WT or Cdt2^PIP-3A were transfected with siCdt2 or control (siLuc). Three days later, cells were treated with MG132 (25 μM), and 10 min later irradiated with UV (20 J/m^2). Cells were collected at the indicated time points, and used for Western blotting with indicated antibodies.
# To consider this possibility, asynchronously growing control HEK293 cells and cells expressing Cdt2^WT or Cdt2^PIP-3A were treated with proteasome inhibitor MG132 and the levels of poly-ubiquitinated Cdt1 were examined. […] Cdt2^PIP-3A-expressing cells however had reduced level of both poly-ubiquitinated Cdt1 and p21 on chromatin.
# Next, we examined the accumulation of poly-ubiquitinated Cdt1 after UV irradiation. For this experiment, the endogenous Cdt2 was depleted with an siRNA targeted to the 3′ UTR to assay for the activity of introduced Cdt2. Cells were treated with MG132, irradiated with UV and the levels of poly-ubiquitinated Cdt1 were monitored by Western blotting. In HEK293 cells treated with control siRNA, poly-ubiquitinated Cdt1 was detected 15 min after irradiation (Fig S6B). […] The defect was rescued by Cdt2^WT expression.
# [1] = test system: Cdt1 degradation, U2OS cells; experiment: Cdt1 degradation after UV irradiation in U2OS cells; conditions: for Cdt1 degradation after UV: siCdt2 (3′ UTR), UV 20 J/m^2
# Source text: Because the poly-ubiquitination activity of Cdt2^PIP-3A was reduced, we monitored the degradation of Cdt1 after UV irradiation. Asynchronously growing control U2OS cells and cells expressing Cdt2^WT or Cdt2^PIP-3A (Fig S7) were depleted of endogenous Cdt2 using an siRNA targeted to the 3′ UTR, and irradiated with UV.
# Figure 7. The Cdt2 PIP box plays an important role for rapid Cdt1 degradation after UV irradiation. (A) U2OS cells and U2OS cells stably expressing Cdt2^WT-3FLAG or Cdt2^PIP-3A-3FLAG were transfected with siCdt2 targeted to the 3′ UTR or control siLuc for 48 h, irradiated with UV (+, 20 J/m^2) or not (−), and collected at the indicated time points (min) for Western blotting. (B) The protein levels were measured and the relative amounts of Cdt1, normalized to RCC1, after UV irradiation were shown, UV (−) level set as 1.0. Error bars represent SD from three independent experiments. (C) Cells were transfected with siCdt2 or control siLuc for 72 h, irradiated with UV (+, 5 J/m^2) or not (−) (not shown), and 1h later fixed for staining with Cdt1 and cyclinA antibodies. (D) The frequency of Cdt1-positive (+) cells among the total cells in (C) was shown (%) (average of two independent experiments).
# Double-stranded RNAs were transfected at 100 nM using Oligofectamine (Invitrogen) or HiPerFect (QIAGEN). Twenty-four hours after the first transfection, a second transfection was performed and cells were cultured for two more days. The following siRNAs were made by Dharmacon: Skp2; […], Cdt2_3′UTR; […]. The siRNA for siLuc, known as GL2, was used as a control siRNA. For Cdt1 silencing in Fig 1A and B, unsychronized HeLa cells were transfected twice with 200 nM of Cdt1 siRNA or control luciferase siRNA using Lipofectamine 2000 with a time interval of 24 h and were analysed 48 h after the second transfection. In synchronized MCF7 cells (Fig 1D), a single transfection with 200 nM of Cdt1 siRNA or control luciferase siRNA using Lipofectamine 2000 5 h after release from thymidine and before adding nocodazole was carried out. The Cdt1 siRNA was made by MWG: […].
Molecule,"interaction with PCNA (reverse IP, anti-Myc) (PCNA)",interaction with PCNA (anti-FLAG IP) (PCNA),poly-ubiquitinated Cdt1 level (Cdt1 poly-ubiquitination),poly-ubiquitination of Cdt1 after UV (Cdt1 poly-ubiquitination),Cdt1 degradation after UV [1],"Cdt1 stability after low-dose UV ([1]; siCdt2, UV 5 J/m^2, 1 h post UV)"
"Cdt2: Cdt2 tagged with GFP, transiently expressed in MCF7 cells",co-precipitated with Myc-PCNA,interact with PCNA,clearly detected,rescued,restored Cdt1 degradation to similar kinetics to that of control siRNA-transfected U2OS cells,–
B1,not detected in the precipitates,lost almost entirely,reduced,defective in poly-ubiquitination of Cdt1,much less effective in rescuing Cdt2 depletion,Cdt1 remained stable 1 h post UV irradiation
